Here are results for 2 molecules from PMC12314576, “The Actin‐Binding Prolyl‐Isomerase Par17 Sustains Its Substrate Selectivity by Interdomain Allostery” (Proteins, 2025).

Starred links: 1 amine or outer side, 2 acyl side, 3 side chain; linkers in the order of their positions; H or OH if unused. *: point of attachment. pNA = O=[N+]([O-])c1ccc(N*)cc1; Suc = O=C(CCC(=O)[*:2])[*:1]

The test concerns the target Parvulin 17 (human) (UniProt Q9Y237). The test is described as follows: NMR titration; substrate peptides added stepwise to 15N-labelled parvulin (300 μM, up to 3 mM peptide, 1:10); BEST-TROSY-HSQC at 20°C, 50 mM KPi buffer pH 6.7; microscopic (residue-specific) KD fitted with a 1:1 binding model.

Parvulin 17 (human), sequence (Q9Y237 other isoform, or with tags, fused parts or gaps): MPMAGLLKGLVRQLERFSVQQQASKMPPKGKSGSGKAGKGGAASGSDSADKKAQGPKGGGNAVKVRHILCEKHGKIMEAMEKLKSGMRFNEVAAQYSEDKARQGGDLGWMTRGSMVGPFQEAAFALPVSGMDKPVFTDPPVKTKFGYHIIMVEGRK

B1: Suc-Ala-Lys-Pro-Phe-pNA (peptide)
peptide: Suc-AKPF-pNA
SMILES: C[C@H](NC(=O)CCC(=O)O)C(=O)N[C@@H](CCCCN)C(=O)N1CCC[C@H]1C(=O)N[C@@H](Cc1ccccc1)C(=O)Nc1ccc([N+](=O)[O-])cc1
For the molecule B1, the microscopic (residue-specific) KD, V116 was 24 mM.

B2: Suc-Ala-Arg-Pro-Phe-pNA (peptide)
peptide: Suc-ARPF-pNA
SMILES: C[C@H](NC(=O)CCC(=O)O)C(=O)N[C@@H](CCCNC(=N)N)C(=O)N1CCC[C@H]1C(=O)N[C@@H](Cc1ccccc1)C(=O)Nc1ccc([N+](=O)[O-])cc1
The molecule B2 showed a microscopic (residue-specific) KD, V116 of 17 mM.
